Each block holds one binder with its values, some of them ahead of it.
Assays:
[1] = target: T1, human serum albumin (Sigma-Aldrich A3782) (human, UniProt P02768 25-609); assay: competition ELISA on coated human serum albumin; tracer 1.5 nM [SEQ ID NO:1-cMycHis6] detected with anti-cMyc
T1 construct: Bought protein; also called HSA; human SA

[2] = target: T1, human serum albumin (Sigma-Aldrich …); assay: SPR (ProteOn XPR36), albumin immobilised, pH 7.4
[3] = target: T2, cynomolgus monkey serum albumin (generated in-house) (cynomolgus monkey, UniProt A2V9Z4 25-608, limits assumed); assay: SPR (ProteOn XPR36), albumin immobilised, pH 7.4
T2 construct: also called cyno SA

[4] = target: T3, rat serum albumin (Sigma-Aldrich A4538) (rat, UniProt P02770 25-608); assay: SPR (ProteOn XPR36), albumin immobilised, pH 7.4
T3 construct: Bought protein; also called rat SA

[5] = target: T4, mouse serum albumin (Albumin Bioscience 2601) (mouse, UniProt P07724 25-608); assay: SPR (ProteOn XPR36), albumin immobilised, pH 7.4
T4 construct: Bought protein; also called mouse SA

[6] = target: T5, guinea pig serum albumin (Gentaur GPSA62) (guinea pig); assay: SPR (ProteOn XPR36), albumin immobilised, pH 7.4
T5 construct: also called guinea pig SA

[7] = target: T1, human serum albumin (Sigma-Aldrich …); assay: SPR (ProteOn), HSA immobilised, 500 nM injected, dissociation at pH 5.0
[8] = target: T1, human serum albumin (Sigma-Aldrich …); assay: SPR (ProteOn), HSA immobilised, 500 nM injected, dissociation at pH 6.0
[9] = target: T1, human serum albumin (Sigma-Aldrich …); assay: SPR (ProteOn), HSA immobilised, 500 nM injected, dissociation at pH 7.4

IC50 (read off the curve) [1]: ~0.8 nM
B1: [His6Flag3-SEQ ID NO:15] (VHH)
VHH: EVQLVESGGGLVQAGGSLRLSCAASGLTFSSYAMGWFRQAPGKERERVVSISRGGGYTYYADSVKGRFTISRDNAENTVYLQMNSLKPEDTAVYYCAAARYWATGSEYEFDYWGQGTLVTVSS
notes: not shown: N-terminal His6-Flag3 tag

Kd [2]: 0.19 nM
koff [2]: 0.00015 s⁻¹
kon [2]: 810000 M⁻¹ s⁻¹
Kd [3]: 0.12 nM
koff [3]: 9.4e-05 s⁻¹
kon [3]: 770000 M⁻¹ s⁻¹
Kd [4]: 21 nM
koff [4]: 0.022 s⁻¹
kon [4]: 1e+06 M⁻¹ s⁻¹
Kd [5]: 1.9 nM
koff [5]: 0.0024 s⁻¹
kon [5]: 1.2e+06 M⁻¹ s⁻¹
Kd [6]: 1.5 nM
koff [6]: 0.0021 s⁻¹
kon [6]: 1.4e+06 M⁻¹ s⁻¹
koff [7]: 5.8e-05 s⁻¹
koff [8]: 6.9e-05 s⁻¹
koff [9]: 0.00011 s⁻¹
B2: serum albumin binder of SEQ ID NO:15 (T0235005D04, wild type) (VHH)
VHH: B1 VHH
notes: no tag is stated for these experiments
